The source of these data is patent US20220025021A1 (BETH ISRAEL DEACONESS MEDICAL CENTER, published 2022).

Changes are numbered by the printed parent chain. A value given as a limit tells only on which side of the number the result lay.

First the molecules themselves.
B1: MS-87 (antibody, V domains shown)
VH: QVQLVQSGPEVRKPGTSVKVSCKAPGNTLKTYDLHWVRSVPGQGLQWMGWISHEGDKKVIVERFKAKVTITRDRSTNTAYLQLSGLTSGDTAVYYCAKGSKHRLRDYALYDDDGALNWAVDVDYLSNLEFWGQGTAVTVSS
VL: DFVLTQSPHSLSVTPGESASISCKSSHSLIHGDRNNYLAWYVQKPGRSPQLLIYLASSRASGVPDRFSGSGSDKDFTLKISRVETEDVGTYYCMQGRESPWTFGQGTKVDIKR
B2: MS-89 (antibody, V domains shown)
VH: B1 VH with N27Y, R72W
VL: B1 VL with H9L
B3: MS-91 (antibody, V domains shown)
VH: B1 VH with P25S, N27Y, T71D, R72W
VL: B1 VL with H9L, K74T
B4: MS-92 (antibody, V domains shown)
VH: B1 VH with Q46E, T71D, T87R
VL: B1 VL with F2I
B5: MS-88 (antibody, V domains shown)
VH: B1 VH with P25S, N27Y, L29F
VL: B1 VL
B6: MS-90 (antibody)
VH: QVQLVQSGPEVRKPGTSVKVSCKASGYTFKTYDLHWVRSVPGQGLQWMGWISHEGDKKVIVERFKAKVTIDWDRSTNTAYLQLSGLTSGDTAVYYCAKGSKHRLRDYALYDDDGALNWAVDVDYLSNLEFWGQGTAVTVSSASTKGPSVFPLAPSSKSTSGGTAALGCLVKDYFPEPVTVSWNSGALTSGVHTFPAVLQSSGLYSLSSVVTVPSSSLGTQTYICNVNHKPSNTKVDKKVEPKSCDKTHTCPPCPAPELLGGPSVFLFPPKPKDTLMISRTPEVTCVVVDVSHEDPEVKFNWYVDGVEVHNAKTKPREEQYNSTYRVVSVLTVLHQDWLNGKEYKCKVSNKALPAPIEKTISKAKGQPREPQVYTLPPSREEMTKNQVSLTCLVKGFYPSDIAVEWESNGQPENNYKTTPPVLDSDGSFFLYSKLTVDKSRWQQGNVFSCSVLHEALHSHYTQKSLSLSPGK
VL: DFVLTQSPLSLSVTPGESASISCKSSHSLIHGDRNNYLAWYVQKPGRSPQLLIYLASSRASGVPDRFSGSGSDKDFTLKISRVETEDVGTYYCMQGRESPWTFGQGTKVDIKRTVAAPSVFIFPPSDEQLKSGTASVVCLLNNFYPREAKVQWKVDNALQSGNSQESVTEQDSKDSTYSLSSTLTLSKADYEKHKVYACEVTHQGLSSPVTKSFNRGEC
B7: MS-66 (antibody)
VH: not shown
VL: B6 VL with F2I, L9H
B8: MS-67 (antibody)
VH: not shown
VL: B6 VL
B9: MS-67 (antibody)
VH: not shown
VL: B6 VL
B10: MS-66 (antibody)
VH: not shown
VL: B6 VL with F2I, L9H
B11: MS-68 (antibody)
VH: not shown
VL: B6 VL with L9H, S12P

In the first experiment the target is HIV-1 Env of pseudovirus SC422661.8 (HIV-1). The experiment in a line: cell-based or functional assay.
Regarding B1, the “neutralization IC50” value was 0.711 µg/mL and the “neutralization IC80” value is 13.9 µg/mL.
On to B2, for which the “neutralization IC50” value amounted to 0.786 µg/mL and the “neutralization IC80” value was more than 25 µg/mL.
Regarding B3, the “neutralization IC50” value came out at 1.66 µg/mL and the “neutralization IC80” value is 22.1 µg/mL.
As for B4, the “neutralization IC50” value amounted to 1.53 µg/mL and the “neutralization IC80” value was more than 25 µg/mL.
As to B5, the “neutralization IC50” value turned out to be 1.41 µg/mL and the “neutralization IC80” value was more than 25 µg/mL.
On the same counts, the results for B6 are 1.48 µg/mL and more than 25 µg/mL.
In the case of B7, the “neutralization IC50” value came out at 0.902 µg/mL and the “neutralization IC80” value is 5.82 µg/mL.
Consider B8, for which the “neutralization IC50” value worked out at 0.549 µg/mL and the “neutralization IC80” value came to 2.83 µg/mL.

A further experiment deals with HIV-1 Env of pseudovirus RHPA4259.7 (HIV-1). As to the kind of experiment: cell-based or functional assay.
On to B1, for which the “neutralization IC50” value is 0.294 µg/mL and the “neutralization IC80” value came to 1.09 µg/mL.
For B2 the same measures were 0.29 µg/mL and 1.04 µg/mL.
For B3 the same measures were 0.267 µg/mL and 1.82 µg/mL.
On the same counts, the results for B4 are 0.25 µg/mL and 1.16 µg/mL.
In the case of B5, the “neutralization IC50” value came out at 0.504 µg/mL and the “neutralization IC80” value was determined as 2.51 µg/mL.
Turning to B6, the “neutralization IC50” value was 0.254 µg/mL and the “neutralization IC80” value is 1.33 µg/mL.
Consider B7, for which the “neutralization IC50” value stood at 0.238 µg/mL and the “neutralization IC80” value came to 0.745 µg/mL.
For B8 the same measures were 0.129 µg/mL and 0.706 µg/mL.

The next experiment addresses HIV-1 Env of pseudovirus Du172.17 (HIV-1). The experiment in a line: cell-based or functional assay.
Take B1: the “neutralization IC50” value is more than 25 µg/mL and the “neutralization IC80” value is more than 25 µg/mL.
For the molecule B2, the “neutralization IC50” value amounted to 11.9 µg/mL and the “neutralization IC80” value was more than 25 µg/mL.
For B3 the same measures were 3.85 µg/mL and 23.9 µg/mL.
As to B4, the “neutralization IC50” value was found to be 6.85 µg/mL and the “neutralization IC80” value was more than 25 µg/mL.
For the molecule B5, the “neutralization IC50” value was more than 25 µg/mL and the “neutralization IC80” value is more than 25 µg/mL.
For B6, the “neutralization IC50” value is 4.07 µg/mL and the “neutralization IC80” value came to 15.6 µg/mL.
On the same counts, the results for B7 are 2.08 µg/mL and 11.3 µg/mL.
In the case of B8, the “neutralization IC50” value was determined as 1.76 µg/mL and the “neutralization IC80” value is 9.31 µg/mL.

A further experiment deals with HIV-1 Env of pseudovirus BB1012-11.TC21 (HIV-1). The experiment in a line: cell-based or functional assay.
With B1, the “neutralization IC50” value was 0.023 µg/mL and the “neutralization IC80” value was found to be 0.102 µg/mL.
For B2, the “neutralization IC50” value amounted to 0.032 µg/mL and the “neutralization IC80” value is 0.143 µg/mL.
For B3 the same measures were 0.037 µg/mL and 0.17 µg/mL.
Take B4: the “neutralization IC50” value worked out at 0.029 µg/mL and the “neutralization IC80” value was 0.127 µg/mL.
On the same counts, the results for B5 are 0.02 µg/mL and 0.088 µg/mL.
In the case of B6, the “neutralization IC50” value was found to be 0.044 µg/mL and the “neutralization IC80” value worked out at 0.204 µg/mL.
On the same counts, the results for B7 are 0.017 µg/mL and 0.074 µg/mL.
As to B8, the “neutralization IC50” value was 0.017 µg/mL and the “neutralization IC80” value was 0.071 µg/mL.

Another experiment deals with HIV-1 Env of pseudovirus CNE52 (HIV-1). The experiment in a line: cell-based or functional assay.
With B1, the “neutralization IC50” value worked out at 2.69 µg/mL and the “neutralization IC80” value was more than 25 µg/mL.
For B2, the “neutralization IC50” value was found to be 2.34 µg/mL and the “neutralization IC80” value turned out to be 23.8 µg/mL.
With B3, the “neutralization IC50” value was 1.41 µg/mL and the “neutralization IC80” value was 10.6 µg/mL.
With B4, the “neutralization IC50” value came to 3.92 µg/mL and the “neutralization IC80” value was more than 25 µg/mL.
For the molecule B5, the “neutralization IC50” value worked out at 5.86 µg/mL and the “neutralization IC80” value is more than 25 µg/mL.
For B6, the “neutralization IC50” value worked out at 1.05 µg/mL and the “neutralization IC80” value worked out at 8.56 µg/mL.
Consider B7, for which the “neutralization IC50” value worked out at 0.408 µg/mL and the “neutralization IC80” value was determined as 3.74 µg/mL.
For the molecule B8, the “neutralization IC50” value was 0.212 µg/mL and the “neutralization IC80” value came out at 1.81 µg/mL.

A further experiment has as its target HIV-1 Env of pseudovirus 0260.v5.c36 (HIV-1). As to the kind of experiment: cell-based or functional assay.
On to B1, for which the “neutralization IC50” value was found to be 0.114 µg/mL and the “neutralization IC80” value was 1.01 µg/mL.
B2: the “neutralization IC50” value stood at 0.036 µg/mL and the “neutralization IC80” value stood at 0.197 µg/mL.
On the same counts, the results for B3 are 0.046 µg/mL and 0.171 µg/mL.
Turning to B4, the “neutralization IC50” value came out at 0.044 µg/mL and the “neutralization IC80” value worked out at 0.35 µg/mL.
Regarding B5, the “neutralization IC50” value is 0.178 µg/mL and the “neutralization IC80” value is 1.51 µg/mL.
On to B6, for which the “neutralization IC50” value came to 0.03 µg/mL and the “neutralization IC80” value turned out to be 0.168 µg/mL.
On the same counts, the results for B7 are 0.024 µg/mL and 0.092 µg/mL.
Consider B8, for which the “neutralization IC50” value amounted to 0.023 µg/mL and the “neutralization IC80” value worked out at 0.088 µg/mL.

A further experiment concerns the target HIV-1 pseudovirus 263-8 (HIV-1). The experiment in a line: cell-based or functional assay.
As for B9, the “IC50 (neutralization in TZM.bl cells)” value amounted to 0.011 µg/mL and the “IC80 (neutralization in TZM.bl cells)” value came to 0.037 µg/mL.
Consider B10, for which the “IC50 (neutralization in TZM.bl cells)” value is 0.017 µg/mL and the “IC80 (neutralization in TZM.bl cells)” value was found to be 0.06 µg/mL.
As for B11, the “IC50 (neutralization in TZM.bl cells)” value came out at 0.011 µg/mL and the “IC80 (neutralization in TZM.bl cells)” value came to 0.038 µg/mL.

In a further experiment the target is HIV-1 pseudovirus SC05.8C11.2344 (HIV-1). As to the kind of experiment: cell-based or functional assay.
Regarding B9, the “IC50 (neutralization in TZM.bl cells)” value is 0.631 µg/mL and the “IC80 (neutralization in TZM.bl cells)” value amounted to 2.14 µg/mL.
As to B10, the “IC50 (neutralization in TZM.bl cells)” value turned out to be 0.811 µg/mL and the “IC80 (neutralization in TZM.bl cells)” value was found to be 2.54 µg/mL.
With B11, the “IC50 (neutralization in TZM.bl cells)” value was determined as 0.708 µg/mL and the “IC80 (neutralization in TZM.bl cells)” value turned out to be 1.95 µg/mL.

For a further experiment, the target named is HIV-1 pseudovirus X1193_c1 (HIV-1). As to the kind of experiment: cell-based or functional assay.
Regarding B9, the “IC50 (neutralization in TZM.bl cells)” value was 0.075 µg/mL and the “IC80 (neutralization in TZM.bl cells)” value came to 0.303 µg/mL.
On to B10, for which the “IC50 (neutralization in TZM.bl cells)” value was 0.086 µg/mL and the “IC80 (neutralization in TZM.bl cells)” value was 0.322 µg/mL.
As for B11, the “IC50 (neutralization in TZM.bl cells)” value was 0.1 µg/mL and the “IC80 (neutralization in TZM.bl cells)” value was found to be 0.287 µg/mL.

A further experiment deals with HIV-1 pseudovirus Ce1176_A3 (HIV-1). The experiment in a line: cell-based or functional assay.
Regarding B9, the “IC50 (neutralization in TZM.bl cells)” value worked out at 0.105 µg/mL and the “IC80 (neutralization in TZM.bl cells)” value is 1.9 µg/mL.
As for B10, the “IC50 (neutralization in TZM.bl cells)” value came out at 0.165 µg/mL and the “IC80 (neutralization in TZM.bl cells)” value amounted to 5.43 µg/mL.
Consider B11, for which the “IC50 (neutralization in TZM.bl cells)” value was found to be 0.096 µg/mL and the “IC80 (neutralization in TZM.bl cells)” value is 1.64 µg/mL.

The next experiment concerns the target HIV-1 pseudovirus AC10.0.29 (HIV-1). As to the kind of experiment: cell-based or functional assay.
On to B9, for which the “IC50 (neutralization in TZM.bl cells)” value amounted to 0.031 µg/mL and the “IC80 (neutralization in TZM.bl cells)” value came to 0.186 µg/mL.
For B10 the same measures were 0.035 µg/mL and 0.213 µg/mL.
For B11, the “IC50 (neutralization in TZM.bl cells)” value is 0.04 µg/mL and the “IC80 (neutralization in TZM.bl cells)” value was found to be 0.169 µg/mL.

The target of another experiment is HIV-1 pseudovirus 6952.v1.c20 (HIV-1). As to the kind of experiment: cell-based or functional assay.
As to B9, the “IC50 (neutralization in TZM.bl cells)” value worked out at 0.28 µg/mL and the “IC80 (neutralization in TZM.bl cells)” value turned out to be 7.89 µg/mL.
Regarding B10, the “IC50 (neutralization in TZM.bl cells)” value was 0.284 µg/mL and the “IC80 (neutralization in TZM.bl cells)” value was more than 25 µg/mL.
Consider B11, for which the “IC50 (neutralization in TZM.bl cells)” value was found to be 0.206 µg/mL and the “IC80 (neutralization in TZM.bl cells)” value worked out at 12.9 µg/mL.
